{"source": "paper PMC9907207", "about": "(Nature Communications, 2023)", "binders": {"B1": {"name": "GAR05 Fab (Fab, V domains shown)", "VH": "EVQLVQSGGDLVQPGGSLRLSCAVSGFTVSRNYMTWVRQAPGRGLEWVSLIYPGGSAFYADSVKGRFTISRDNSKNTLYLQMNSLRVEDTAVYYCARDPVSTGHYHDSDYWGQGTLVTVSS", "VL": "DIQMTQSPSALSASVGDRVTITCQASQDINKFLNWYQQKPGKAPKLLIYDASNLETGVPSRFSGGGSGTDFTFTISSLQPEDIATYYCHQYDNLPRTFGQGTKVELK", "notes": "also called GAR05 Fab fragment; source: ExpiCHO, purified (Talon resin, S200 SEC)"}, "B2": {"name": "GAR03 Fab (Fab, V domains shown)", "VH": "QVQLVQSGAEVKKPGASVKVSCKASGYTFSSYDINWVRQAPGQGLEWMGWMSPNSGNTGYAQKFQGRVTMTRSTSMSTAYMELSSLRSEDTAVYFCARMSSSLTNYLDYWGQGTLVTVSS", "VL": "SYVLTQPPSVAVAPGQTARIRCGENDIGSKNVHWYQQKSGQAPVLVVYDDSDRPSGIPERFSGSNSGNTATLTISRVEAGDEADYYCQVWDSTGDHPDVVFGGGTKLTVL", "notes": "also called GAR03 antibody Fab; source: ExpiCHO, purified (Talon resin, S200 SEC)"}}, "biological_target": "T1, D614G VFLIP spike trimer (SARS-CoV-2, ancestral with D614G, VFLIP …, stabilised)", "T1 construct": "also called stabilized D614G ancestral trimeric spike (\"VFLIP\"); trimeric spike", "assay": "cryo-EM structure", "conditions": "both partners purified"}
{"binder": "B1", "values": [{"measurement": "stoichiometry N", "result": 3, "unit": "Fabs per spike trimer"}]}
{"binder": "B2", "values": [{"measurement": "stoichiometry N", "result": 1, "unit": "Fab per spike trimer"}]}
